Values joined by “and” are separate entries in the source; they are usually repeats but may differ in a detail not shown here. Identical values can stand only once.
Assays:
[1] = target: T1, Solute carrier family 22 member 1 (Rattus norvegicus, UniProt Q63089); assay: TP_TRANSPORTER: uptake in Xenopus laevis oocytes; assay type: functional, cell-based; conditions: oocyte
T1 sequence (Q63089 whole entry): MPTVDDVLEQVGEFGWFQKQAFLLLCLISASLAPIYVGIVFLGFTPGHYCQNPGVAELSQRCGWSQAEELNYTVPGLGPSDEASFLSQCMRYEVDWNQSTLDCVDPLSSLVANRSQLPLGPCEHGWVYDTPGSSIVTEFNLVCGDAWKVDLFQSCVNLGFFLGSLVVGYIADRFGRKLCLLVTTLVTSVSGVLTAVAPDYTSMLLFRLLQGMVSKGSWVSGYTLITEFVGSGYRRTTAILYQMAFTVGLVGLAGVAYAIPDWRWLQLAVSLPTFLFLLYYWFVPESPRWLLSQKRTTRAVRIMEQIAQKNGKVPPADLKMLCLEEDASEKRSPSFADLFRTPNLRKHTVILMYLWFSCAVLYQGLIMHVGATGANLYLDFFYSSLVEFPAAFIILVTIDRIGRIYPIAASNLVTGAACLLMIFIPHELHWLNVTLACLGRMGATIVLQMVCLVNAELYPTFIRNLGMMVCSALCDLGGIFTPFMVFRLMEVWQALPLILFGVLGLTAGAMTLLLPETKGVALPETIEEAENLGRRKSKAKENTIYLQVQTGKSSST

[2] = target: T1, Solute carrier family 22 member 1; assay: (§1) TP_TRANSPORTER: uptake (electrogenesis) in Xenopus laevis oocytes; assay type: functional, cell-based; conditions: oocyte
[3] = substrate: NCCc1c[nH]cn1; assay: cells, lysate or membranes named
[4] = substrate: NCCc1ccc(O)c(O)c1; assay: cells, lysate or membranes named
[5] = substrate: NCCc1c[nH]c2ccc(O)cc12; assay: as §1; assay type: functional, cell-based, Oocyte
[6] = substrate: CC(=O)OCC[N+](C)(C)C; assay: as §1; assay type: functional, cell-based, Oocyte

C=C[C@H]1C[N@@]2CC[C@H]1C[C@H]2[C@H](O)c1ccnc2ccc(OC)cc12 [QUININE]
Activity [1]: is not a substrate [-]

C=C[C@H]1C[N@@]2CC[C@H]1C[C@@H]2[C@@H](O)c1ccnc2ccc(OC)cc12 [QUINIDINE]
Activity [1]: is not a substrate [-]

NC[C@H](O)c1ccc(O)c(O)c1 [NOREPINEPHRINE]
Activity [2]: substrate [+]

B1: Solute carrier family 22 member 1 (Rattus norvegicus) (protein)
chain: T1 sequence (Q63089 whole entry)
Km [3]: 98.6 µM
Km [4]: 19.4 µM and 51 µM
Km [5]: 37.6 µM
Km [6]: 46.8 µM

Reference: ChEMBL document CHEMBL2074147, “Monoamine neurotransmitter transport mediated by the polyspecific cation transporter rOCT1” (FEBS Lett, 1996)
